This is an account of results in US20160369006A1.

For the assay, the target named is FcγRIIIA (CD16A) on transduced Jurkat cells (human) (UniProt P08637). In words: cell-based or functional assay. Details: EC50, NFAT-luciferase reporter in CD16A Jurkat cells with RMF-pulsed T2 cells (reverse signaling): unit not given beside the values.

Bounds are passed on as bounds.

Sequence of FcγRIIIA (CD16A) on transduced Jurkat cells (human) (P08637 17-254): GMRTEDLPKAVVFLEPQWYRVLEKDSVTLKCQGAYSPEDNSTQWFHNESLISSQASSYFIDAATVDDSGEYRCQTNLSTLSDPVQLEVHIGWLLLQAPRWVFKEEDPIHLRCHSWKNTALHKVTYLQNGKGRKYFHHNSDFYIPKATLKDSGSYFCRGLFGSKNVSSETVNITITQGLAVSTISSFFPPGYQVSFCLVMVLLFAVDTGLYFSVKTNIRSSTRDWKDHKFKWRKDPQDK

On to “ESKM having 100% reduction in fucosylation (GlymaxX technology) (antibody)”, for which the EC50, NFAT-luciferase reporter in CD16A Jurkat cells with RMF-pulsed T2 cells (reverse signaling) was found to be 0.17 and the fold decrease in EC50 relative to wildtype ESK1, CD16A reporter is 5 fold. “ESK1 containing D265A/P329A mutations in the Fc domain (ESK1 DAPA) (antibody)” came in with an EC50, NFAT-luciferase reporter in CD16A Jurkat cells with RMF-pulsed T2 cells (reverse signaling) of more than 10000.
